No end group written: not given here.
How the values were obtained:
[1] = tested on: fos-like immunoreactivity; test: Fos-like immunoreactivity (FLI) immunohistochemistry in hypothalamus and brainstem after IP injection; type: in vivo, rat; conditions: IP 15 nmol/kg, 90 minutes
Source text: The brains were removed and post-fixed overnight in PBF and then transferred to PB-sucrose (20% w/v) overnight. 40 μm coronal sections of brain and brainstem were cut on a freezing microtome and stained for fos-like immunoreactivity (FLI) by the avitin-biotin-peroxidase method. The sections were then mounted on poly-L-lysine-coated slides, dehydrated in increasing concentrations of ethanol (50-100%), delipidated in xylene and coverslipped using DPX mountant. Slides were examined for FLI-positive nuclei using a light microscope (Nikon Eclipse E-800) and images captured using a microimager (Xillix MicroImager). The numbers of FLI-positive nuclei in the hypothalamus and brainstem were counted by an independent member of the research team who was blinded to the experimental groups. The average number of FLI-positive nuclei per section was calculated and expressed as an integer for each animal.

[2] = iPVN injection, food intake in 24-h fasted rats (studies 1b, 2b); type: in vivo, rat
Method: (§1) Animals were handled daily after recovery from surgery until completion of the studies.
(§2) Animals had permanent stainless steel guide cannulas (Plastics One, Roanoke, Va.) stereotactically implanted ICV (intracerebraventricularly) or iPVN (into the hypothalamic paraventricular nucleus).
Therefore, exendin-4 was injected iPVN at a dose of 0.03 nmol.

GLP-1 receptor = target: T1, GLP-1 receptor (Rattus norvegicus, UniProt P32301); test: Coadministration of exendin-(9-39) with GLP-1 or OXM, ICV and iPVN, food intake (study 4); type: in vivo
T1 construct: from tissue; host or cells: rat hypothalamus (membrane preparation)
T1 sequence (P32301 22-463): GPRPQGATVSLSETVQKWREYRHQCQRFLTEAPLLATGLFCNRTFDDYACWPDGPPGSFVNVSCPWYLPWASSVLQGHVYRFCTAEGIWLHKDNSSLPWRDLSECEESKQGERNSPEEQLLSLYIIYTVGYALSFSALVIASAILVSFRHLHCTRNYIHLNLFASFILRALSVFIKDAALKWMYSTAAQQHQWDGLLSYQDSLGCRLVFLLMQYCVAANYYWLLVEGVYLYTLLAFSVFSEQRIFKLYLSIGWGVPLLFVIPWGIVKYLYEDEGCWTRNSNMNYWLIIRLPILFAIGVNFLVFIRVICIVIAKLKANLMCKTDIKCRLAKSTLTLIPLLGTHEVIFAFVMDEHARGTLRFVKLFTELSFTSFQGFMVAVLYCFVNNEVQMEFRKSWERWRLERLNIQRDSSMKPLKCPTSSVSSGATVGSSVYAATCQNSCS

[3] = target: T2, Arcuate nucleus GLP-1 receptors (Rattus norvegicus, UniProt P32301); test: iARC exendin 9-39 prior to IP OXM or GLP-1, 1 hour food intake; type: in vivo
T2 construct: 24-hour fasted rats received an iARC injection of saline or exendin9-39 (5 nmoles); from tissue; host or cells: live rat, hypothalamic arcuate nucleus
T2 sequence (P32301 22-463): T1 sequence (P32301 22-463)
Source text: Rats cannulated into the arcuate nucleus were randomised into 6 groups (n=10-12 per group). […] The injection details are described in Table 1 below.

[4] = ICV injection, food intake in 24-h fasted rats (studies 1a, 2a); type: in vivo, rat; conditions: ICV 3 nmol, vs saline
Source text: as §1, §2

## CCK: positive control for gastric emptying at the two-hour time-point (DYMGWMDF; ends and bridges not checked; UniProt P06307 96-103, looked up)
[1]
  FLI staining in the brainstem (NTS, area postrema): caused dense staining of FLI

## exendin-4
[2]; iPVN 0.03 nmol
  food intake (refeeding) after iPVN injection: inhibited reseeding

## exendin-(9-39)
GLP-1 receptor; ICV, exendin-(9-39) 30 nmol with GLP-1 3 nmol, ratio 10:1
  effect of coadministration on anorectic effects of GLP-1: blocked the anorectic effects of GLP-1
GLP-1 receptor; ICV, exendin-(9-39) 30 nmol with OXM 3 nmol
  effect of coadministration on anorectic effect of OXM: attenuation of the anorectic effect of OXM
GLP-1 receptor; iPVN, exendin-(9-39) 10 nmol with GLP-1 1 nmol
  effect of coinjection on anorectic effects of GLP-1: blocked
GLP-1 receptor; iPVN, exendin-(9-39) 10 nmol with OXM 1 nmol
  effect of coinjection on anorectic effects of OXM: blocked
[3]; exendin 9-39 into the ARC, dose printed 300 nmol/kg, IP OXM 30 nmol/kg
  effect on anorexia caused by IP administration of OXM: blocked
[3]; iARC exendin 9-39 (5 nmoles) or saline 15 minutes prior to IP OXM (30 nmol/kg), GLP-1 (30 nmol/kg) or saline
  Food intake (g), 1 hour: 9.0 g
[3]; prior iARC exendin 9-39, IP GLP-1 30 nmol/kg
  effect on inhibition of food intake by IP GLP-1: not affected

## glucagon
[2]; iPVN 1 nmol, any time point
  food intake after iPVN injection: failed to affect food intake at any time point
[4]
  food intake (refeeding) after ICV injection: failed to affect food intake at any time point

From patent publication US7825091B2, “Modification of feeding behaviour” (Imperial Innovations Limited, priority 2003, dated 2010)
